Earlier results in PMC5156371.
“And” between values parts separate entries of the source, which are not always exact repeats. Identical values can stand only once. Like-named read-outs stand apart in the source and are kept apart here.

Columns and labels:
MAL TIR (Homo sapiens) [1] = target: MAL TIR (Homo sapiens) (UniProt P58753)
MyD88 TIR (Homo sapiens) [2] = target: MyD88 TIR (Homo sapiens) (UniProt Q99836)
MAL TIR (Homo sapiens) [3] = target: MAL TIR (Homo sapiens) (UniProt P58753); remark: listed apart in the source
MyD88 TIR (Homo sapiens) [4] = target: MyD88 TIR (Homo sapiens) (UniProt Q99836); remark: listed apart in the source

Row | Substance | Kd (MAL TIR (Homo sapiens) [1]) | Kd (MyD88 TIR (Homo sapiens) [2]) | Kd (MAL TIR (Homo sapiens) [3]) | Kd (MyD88 TIR (Homo sapiens) [4])
1 | A46 87-229 (from UniProt P26672) | 2.3 µM and 2.24 µM | 0.89 µM and 1.24 µM |  | 
2 | A46 1-229 (from UniProt P26672) |  |  | 1.44 µM and 1.56 µM | 0.46 µM and 0.52 µM
